According to paper PMC12624006:

Biological target: Lhcp-2 polypeptide of the prasinophyte light-harvesting complex Lhcp (Ostreococcus tauri) (Ostreococcus tauri)
Test: cryo-EM structure

stoichiometry N: 3
Substance: Lhcp-2 polypeptide of the prasinophyte light-harvesting complex Lhcp (Ostreococcus tauri) (natural protein)
